Data: patent US20240207421A1, “NERVE TARGETING PEPTIDES AND METHODS OF USE” (ALUME BIOSCIENCES, INC., priority 2020, published 2024)

Molecular target: Human Myelin Basic Protein (Homo sapiens, UniProt P02686)
Assay: Phage display library screening (Example 2, Python script analysis), binding to Human Myelin Basic Protein
Set-up: Enzo 200-606-M001 from human; purchased Enzo 200-606-M001; host or cells: human brain (tissue-derived)
Conditions: R3 Myelin Basic Protein; combined unique sequence count, Python/R script analysis
Procedure: Phage display library screens were used to identify peptides that bind to target proteins (including specific laminin trimers) that are expressed in human nerves, as described in Table 3. These screens were also carried out to identify peptides that could bind selectively to nerves versus muscle. Such peptides could therefore be useful for systemic in-vivo labeling of nerves during fluorescence assisted surgery. Specifically, m 13 phage libraries expressing 7 or 12 random amino acid peptides, or a cyclic peptide CX7C, on the N-terminus of the minor coat protein pIII (New England Biolabs; NEB) were processed through multiple rounds of selection for binding to target proteins expressed in nerves, or to excised human nerves, nerve extracts, or muscle, as described further below.
For screening against the specified target proteins in Table 1, including LN211, LN411, LN421, and LN521, the phage library was processed by up to 4 binding and wash cycles. For selection, phage libraries were incubated for up to 24 hours at 4° C. in 96 well plates that had been coated with one of the target proteins. Plates were then washed with PBS and phage were eluted using 0.2M glycine pH 2.0. Phage supernatants where then neutralized with Tris pH 9.0 prior to plating on TGI bacteria and LB agar plates. Colonies were counted to determine titer followed by DNA preparation of pools of phage and NextGen sequencing. After rounds of selection, phage were pooled and amplified for iterative selection. Phage that were bound at each round were sequenced. NextGen sequencing of pools after 2, 3 and 4 rounds of selection was used to isolate candidate sequences that were analyzed further to identify those that specifically bound each unique target protein.
Python Script Analysis: For all NEB sequence datasets, a python script was used to translate, trim, and filter the peptide sequences. The script translated the nucleotide sequences, translating amber codons as glutamine in peptide sequences, and then trimmed the end sequences that come from the vector. Secondly, the script combined the unique counts of trimmed peptides with identical sequences. […] Another python script was used to group peptides from different assays according to protein target (Myelin Protein Zero, Myelin Proteolipid Protein, Myelin Basic Protein, and Nidogen-2) and also combine the unique sequence counts for each peptide. An R script was written to merge the peptide sequences from different data files and determine peptides specific for each protein target but absent from different protein binding datasets. Peptide sequences were ranked by unique sequence count.

Human Myelin Basic Protein, sequence (P02686 134-304): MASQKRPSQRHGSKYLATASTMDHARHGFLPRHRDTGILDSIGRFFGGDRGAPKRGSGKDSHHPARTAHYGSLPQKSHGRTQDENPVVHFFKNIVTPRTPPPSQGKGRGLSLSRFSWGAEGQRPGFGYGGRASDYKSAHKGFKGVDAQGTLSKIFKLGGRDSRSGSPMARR

Row | Substance | Count
1 | SGPFPLV (R3 Myelin Basic Protein-binding peptide) | 6
2 | NTSLSFK (R3 Myelin Basic Protein-binding peptide) | 8
3 | DVVKDVI (R3 Myelin Basic Protein-binding peptide) | 7
4 | ARVPNPL (R3 Myelin Basic Protein-binding peptide) | 6
5 | NLKLWTR (R3 Myelin Basic Protein-binding peptide) | 7
6 | MTNHGNA (R3 Myelin Basic Protein-binding peptide) | 7
7 | KYRHGAE (R3 Myelin Basic Protein-binding peptide) | 7
8 | ALGTRPL (R3 Myelin Basic Protein-binding peptide) | 7
9 | NMYPRVT (R3 Myelin Basic Protein-binding peptide) | 7
10 | FSAGVGK (R3 Myelin Basic Protein-binding peptide) | 7
11 | TTTQGHP (R3 Myelin Basic Protein-binding peptide) | 6
12 | VVDMSTY (R3 Myelin Basic Protein-binding peptide) | 7
13 | SGNLKKA (R3 Myelin Basic Protein-binding peptide) | 7
14 | SLDHLRL (R3 Myelin Basic Protein-binding peptide) | 6
15 | FKLPWAS (R3 Myelin Basic Protein-binding peptide) | 7
16 | WSLPLLS (R3 Myelin Basic Protein-binding peptide) | 7
17 | SSFYVAY (R3 Myelin Basic Protein-binding peptide) | 6
18 | CPRMNNPLC (R3 Myelin Basic Protein-binding peptide) | 7
19 | IILPSAQ (R3 Myelin Basic Protein-binding peptide) | 8
20 | RTTDWWT (R3 Myelin Basic Protein-binding peptide) | 6
21 | LITHPQL (R3 Myelin Basic Protein-binding peptide) | 6
22 | SIAEVLGLWRNV (R3 Myelin Basic Protein-binding peptide) | 7

Row | Substance | Count
23 | TIRVAHT (R3 Myelin Basic Protein-binding peptide) | 6
24 | TSPPLAH (R3 Myelin Basic Protein-binding peptide) | 8
25 | SVGLPTK (R3 Myelin Basic Protein-binding peptide) | 6
26 | LTKSLNH (R3 Myelin Basic Protein-binding peptide) | 7
27 | VRGTPNH (R3 Myelin Basic Protein-binding peptide) | 6
28 | VPTLRIP (R3 Myelin Basic Protein-binding peptide) | 8
29 | TPGRATL (R3 Myelin Basic Protein-binding peptide) | 6
30 | DVRIWTL (R3 Myelin Basic Protein-binding peptide) | 6
31 | SISKIRT (R3 Myelin Basic Protein-binding peptide) | 7
32 | HMAGVNQ (R3 Myelin Basic Protein-binding peptide) | 7
33 | TPQVMLK (R3 Myelin Basic Protein-binding peptide) | 8
34 | NLTYLRF (R3 Myelin Basic Protein-binding peptide) | 6
35 | SVEYGQL (R3 Myelin Basic Protein-binding peptide) | 9
36 | IPYSQMP (R3 Myelin Basic Protein-binding peptide) | 6
37 | YPYVPIY (R3 Myelin Basic Protein-binding peptide) | 6
38 | WVPDRSL (R3 Myelin Basic Protein-binding peptide) | 6
39 | NFAQHMQ (R3 Myelin Basic Protein-binding peptide) | 9
40 | INFPFAV (R3 Myelin Basic Protein-binding peptide) | 6
41 | TLLTALT (R3 Myelin Basic Protein-binding peptide) | 7
42 | HSGPLLP (R3 Myelin Basic Protein-binding peptide) | 6
43 | LFRRVTE (R3 Myelin Basic Protein-binding peptide) | 7
44 | CTMTNQYDC (R3 Myelin Basic Protein-binding peptide) | 6

Row | Substance | Count
45 | VIRTAAM (R3 Myelin Basic Protein-binding peptide) | 6
46 | ETHYKIA (R3 Myelin Basic Protein-binding peptide) | 6
47 | SLWTHRT (R3 Myelin Basic Protein-binding peptide) | 6
48 | TGSVSKQ (R3 Myelin Basic Protein-binding peptide) | 6
49 | YLPPPLP (R3 Myelin Basic Protein-binding peptide) | 7
50 | TPLYLSS (R3 Myelin Basic Protein-binding peptide) | 7
51 | ASNTSKG (R3 Myelin Basic Protein-binding peptide) | 7
52 | MNSPLAQ (R3 Myelin Basic Protein-binding peptide) | 6
53 | CNRVPFKQC (R3 Myelin Basic Protein-binding peptide) | 7
54 | SRHLPPL (R3 Myelin Basic Protein-binding peptide) | 6
55 | VLSPYHN (R3 Myelin Basic Protein-binding peptide) | 6
56 | SKLAGFP (R3 Myelin Basic Protein-binding peptide) | 6
57 | AQLGAFR (R3 Myelin Basic Protein-binding peptide) | 6
58 | MPSLKHQ (R3 Myelin Basic Protein-binding peptide) | 8
59 | NPTDTNK (R3 Myelin Basic Protein-binding peptide) | 8
60 | AKFTMWV (R3 Myelin Basic Protein-binding peptide) | 6
61 | TGPSSAV (R3 Myelin Basic Protein-binding peptide) | 6
62 | AVRQTTM (R3 Myelin Basic Protein-binding peptide) | 7
63 | QYWDILG (R3 Myelin Basic Protein-binding peptide) | 6
64 | VSFTLEP (R3 Myelin Basic Protein-binding peptide) | 7
65 | SEPGTVR (R3 Myelin Basic Protein-binding peptide) | 7
66 | TPVLWLP (R3 Myelin Basic Protein-binding peptide) | 6

Row | Substance | Count
67 | QGTLFDT (R3 Myelin Basic Protein-binding peptide) | 7
68 | GPRVTPH (R3 Myelin Basic Protein-binding peptide) | 6
69 | SSMRYNS (R3 Myelin Basic Protein-binding peptide) | 6
70 | NGVSSSL (R3 Myelin Basic Protein-binding peptide) | 6
71 | YATATPS (R3 Myelin Basic Protein-binding peptide) | 8
72 | WPDLRIL (R3 Myelin Basic Protein-binding peptide) | 7
73 | HFYGPGP (R3 Myelin Basic Protein-binding peptide) | 9
74 | HSSATMS (R3 Myelin Basic Protein-binding peptide) | 6
75 | SSGMLSK (R3 Myelin Basic Protein-binding peptide) | 7
76 | WSPRWPS (R3 Myelin Basic Protein-binding peptide) | 7
77 | ESKSPRE (R3 Myelin Basic Protein-binding peptide) | 6
78 | NSSPHQI (R3 Myelin Basic Protein-binding peptide) | 7
79 | YSSRLND (R3 Myelin Basic Protein-binding peptide) | 6
80 | HFTFFPI (R3 Myelin Basic Protein-binding peptide) | 6
81 | TQMTMDS (R3 Myelin Basic Protein-binding peptide) | 10
82 | SPKPDIP (R3 Myelin Basic Protein-binding peptide) | 6
83 | NLLQGVM (R3 Myelin Basic Protein-binding peptide) | 7
84 | DSQEKSV (R3 Myelin Basic Protein-binding peptide) | 6
85 | SRPTRVP (R3 Myelin Basic Protein-binding peptide) | 9
86 | HFLRPSD (R3 Myelin Basic Protein-binding peptide) | 7
